Laboratory results reported in the nanobody polyreactivity screen of Harvey et al. (2022).

Experiment: yeast display, Sf9 membrane polyspecificity reagent, FACS + sequencing; frameworks hold sequencing errors
How it was run: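 After 36–48 hours of galactose induction, yeast (Saccharomyces cerevisiae BJ5465) displaying a synthetic nanobody library were stained at 4 °C for 1 hour with 10% biotinylated, detergent-solubilized Sf9 membrane reagent. Streptavidin microbeads enriched the stained cells before FACS sorting into low and high (top ~1%) gates on anti-HA and streptavidin fluorescence. Each clone's polyreactivity label reflects its gate of origin.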

Sequence	polyreactivity (PSR sort gate)
QVQLVESGGGLVQAGGSLRLSCAASGLIFGPYAMGWYRQAPGKERELVAGISRGGSTYYADSVKGRFTISRDNAKNTVYLQMNSLKPEDTAVYYCNAYTYPPYYSKWVRYRYDYWGQGTQVTVSS	high polyreactivity
QVQLVESGGGLVQAGGSLRLSCAASGRTSSIYTMGWYRQAPGKERELVAAINSGGRTYYADSVKGRFTISRDNAKNTVYLQMNSLKPEDTAVYYCAARRSTYYWGGVTYTYYWGQGTQVTVSS	high polyreactivity
QVQLVESGGGLDQAGGSLRLSCAASGRIFDSNAMGWYRQAPGKERELVAAISYDGGSTYYADSVKGRFTISRDNAKNTVYLQMNSLKPEDTAVYYCAGDDGWYYYYGYDYWGQGTQVTVSS	low polyreactivity
QVQLVESGGGLVQGGGSLRLSCAASGNILRIYAMGWYRQAPGKEREFVAAIRQSDGRTYYADSVKGRFTISRDNAKNTVYLQMNSLKPEDTSVYYCAADVYQEYDYWGQGTQVTVSS	high polyreactivity
QVQLVESGGGLVQAGGSLRLSCAPSGSTFQYYAMGWYRQAPGKESELVATITRRGDSTYYADSVKGRFTISRDSAKNTVYFQMNSLKPEDTAVYYCATRYWRSGYDWPYGSWGQGTQETVSS	high polyreactivity
QVQLVESGGGLVQAGGSLRLSCAASGRTFYYYAMGWYRQAPGKERELVAAITSTGGSTYYADSVKGRFTISRDNAKNTVYLQMNSLKPDDTAVYYCAADQVWGYDSWGQGPQVTVSS	low polyreactivity
QVQLQESGGGLVQAGGCLSCTASGTIFGQGDMGWYRQAPGKERELVATINDGASTYYADSVKGRFTISRDKAKNTVYLQKNSLKPDDTAVYYCAVCTDITTYFGYWGQGTQVTVSS	low polyreactivity
QVQLVESGGGLVQAGGSLRLSCAASGITFIGYAMGWYRQAPGKERELVASITSGANTNYADSVKGRFTISRDNAKNTVYLQMNSLKPEDTAVYYCAAPEHGTYANILGEPLDYWGQGTQVTVSS	low polyreactivity
QVQLEESGGGLVQAGGSLRLSCAASVFTFSRYAMGWYRQAHGKVREIVAAISYRGGSTYADSVKGRFTISRDNAKNTVYLQMNSLKPEDTAVYYCAALRWGTDVWRRRIGSLLMGYSGQGTQVTVSS	high polyreactivity
QVQLVESGGGLVQAGVSLRLSCAASGFTFDYYAMGWYRQAPGKERELVAAISWSGGSTYYADSVKGRFTISRDNAKNTVFLQMNSLKPEDTAVYYCAGGRPNPRGRGLAYDFWVQGTQVTVSS	high polyreactivity
QVQLVESGGGLVQAGGSLRLSCAASGSIFGISTMGWYRQAPGKERELVAAITSGDRTSYADSVKGRFTISRDNAKNTVYLQMNTLKPEDTAVYYCARDYYSYRYLRYDYWGQGTQVTVSS	low polyreactivity
QVQLVESGGGLVQAGGSLRLSCAASGFIFVRYAMGWYRQAPGKERELVASISGRGSSTYYADSVKGRFTISRDNAKNTVYLQMNSLKPEDTAVYYCAADYYRRIGGYPYDYDYWGQGTQVTVSS	high polyreactivity
QVQLVESGGGLVQAGGSLRLSCAASGSTFGYYAMGWYRQAPGKERELVAAISKRGGSTYYADSVKGRFTISRDNAKNTVYLQMNSLKPEDTAVYYCAAAPYKYPGDYWGQGTQVTVSS	high polyreactivity
QVQLVESGGGLVQAGGSLRLSCAASGFIFTGYTMGWYRQAPGKERELVAAISYRGGSTYYSDSVKGRFTISRDNAKNTVYLQMNSLKPEDTEVYFCAAESIYFYEYDYWGQGTQVTVSS	high polyreactivity
QVQLVESGAGLVQAGGSLRLSCAASGIIFSGYAMGWYTQAPGKERELVAAISYSGASTYYADSVKGRFTISRDNAKNTVYLQMNSLKPEDTAVYYCAADRRYARYWNGWRYNYWGQGTQVTVSS	high polyreactivity
QVQLVESGGGLVQAGGSLRLSCAASGITLFHYVMGWYRQAPGKERELVADITWRGGNTFYADSVKGRFTISRDNAKNTVYLQMNSLKPEDTAVYYCAVRQAYRTRDYDYWGQGTQVTVSS	high polyreactivity
QVQLVESGGGLDQAGGSLRLSCAASGSIYWNNAMGWYRQAPRKERELDAAISKSGTRTYYADSVKGRFTISRDNAKNTVYLQMNSLKPEDTAVYYCNALLSDSGTYAGDDYWGQGTQVTVSS	high polyreactivity
QVQLVESGGGLVQAGGSLRLSCAASGSTFRYYAMGWYRQAPGKEREFVAAISWSGSSTYYADSVKGRFTISRDNAKNTVYLQMNSLKPEDTAVYYCAARYRYRSSSYDYWGQGTQVTVSS	high polyreactivity
QVQLVESGGGLVQAGGSLRLSCAASGRIFDSNAMGWYRPAPGKERELVAAISYDGGSTYYADSVKGRFTISRDNAKNTVYLQMNSLKPEDTAVYYCAADDGWYYYYGYDYWGQGTQVTVSS	low polyreactivity
QVQLVESGGGLVQSGGSIRLSCAASGSTFDHYTMGWYRQAPGKERELVAAINRIGDSTYYADSVKGRFTISRDNAKNTVYLQMNSLKPEDTAVYDCAARHVPRFNKYGYWGQGTQVNVSS	high polyreactivity
QVQLVESGGGLVQAGGSLRLSCAASGSTFRQNAMGWYRQAPGKERELVAAITYRVASTYYADSVKGRFTISRDNAKNTVYLQMNSLKPEDTAVYYCAARFGSGFNYWGQGTQVTVSS	high polyreactivity
QVQLVESGGGLVQAGGSLRLTCAASGSTFVRYAMGWSRQAPGKERELVAAISRGGRTNYADSVKGRFTISRDNAKNTVYLQMNSLKPEDTAVYDCAKDRNIYYTYDYWGQGTQVTVSS	low polyreactivity

Sequence	polyreactivity (PSR sort gate)
QVQLVESGGGLVQAGGSLRLSCAASGRTFDPYAMGWYRQAPGKERELVASISRGGSTYADSVKGRFTISRDNAKNTVFLQMNSLKPEDTAVYYCNTSLYTEGDAMDYWGQGTQVTVSS	low polyreactivity
QVQLVESGGGLVQAGGSLRLSCAASGRIFWNYAMGWYSQAPGKERELVASINWSGGSTYYADSVKGRFTISRDNAKNTVYLQMNSLKPEDTAVYYCNKDGRVYLDHDYWGQGTQVTVSS	low polyreactivity
QVQLVESGGGLVQAGGSLRLTCGASGRIFRGYAMGCSRQAPGKERELVASISGGDSTYADSVKGRYTISRDNAKNTVYLQINSLKPEDTSVYYWAASSWYPALREYWGQGTQVSVSS	low polyreactivity
QVHLVESGGGLFQAVLSLRLSCAASGFIFQRYPMGWYRQAPGKESELVAAISSGGGTNYADSVKGRFTISRDNAKKTVYLQLNSLIPEDTAVYYCARPYYVYSQSSDYWGQGTQVTVSS	low polyreactivity
QVQLQESGGGLVQAGGDLRLSCAASGNIFLDYIMGWYRQAPGKEREFVAGIDRGANTNYADSVKGRFTISRDNAKNTLYLQMNSLKPEDTAVYYCAVHTAIVPDFIYWGQGTEVTVSS	low polyreactivity
QVQLVESGGRLVQAGGSLRLRCAASGFTFGYNDMGWYRPAPGKERELLAGIRSGDDTNYADSVKGRFTISRDNAKNTDYLQMNSLKPEDTAVYYCAADVVNIATAEYDYCGQGTQVTVSS	low polyreactivity
QVQLVESGGGLVQEGGSLRLSCAASGFIFYRYTKGWYRQAPGKERELVAGISSRGTRTYYADSVKGRFTISRDNAKNTVYLQMNSLKPEDNAVYYCAKVDGSKRYNYWGQGTQVTVSS	high polyreactivity
QVQLVESGGGLVQAGCSLRLSCAASGSIFGYNDMGWNRQAPGKERELVATITWGGGRTRYADSVKGRFTISRDNAKNTVYLQINCLKPEDIAVYYCAADKRSYSYVRPPRNHEDYWGQGSQVTVSS	low polyreactivity
QVQLVESGGGLVQAGGSLRLSWAASGRIFGRYTMGWYTQAPGKERELVAAISSAGSTNYADSVKGRFTISRDNAKNTVYLQMNSLKPEDTAVYYCNRAKYVRYSLHYLGYARDYWGQGTQVTVSS	high polyreactivity
QCQREESGGGLVQAGGRLRLSCAASGLILIYYAMGWYRQAPGKERELVAAITSSGGSTYYADSVKGRFTISRDNAKNTVYLQMNSLKREDTAVYYCAAYYSGDGYYWGQGTQVTVSS	high polyreactivity
QGQLVESGGGLVQAGGSLRLSCAASGFTFDYYAMGWYRQATGKEREFVAAISSRGDDTYYADSVKGRFTISRDNAKNTVYLQMNSLKPEDTAVYYCAALDPWKPEYDYWGQGTQVTLSS	high polyreactivity
QVQLVESGGGLVQAGGSLRISCAASGSIFYQYAMGWYRQAPGKERELVAGITWSGGSTYYADSVKGRFTISRDNAKNTVYLQMNSLKPEDSAVYYCARRYRGGYFWGQGTQVTVSS	high polyreactivity
QVQLVESGGGLVQAGGSLRLSCAASGRIFYVYTMGWYRQARGKERELVAAISWSGGSTHYADSVKGRFTISRDNAKNTVYLQMNSLKPEDTAVYYCNKGVLSRVAFEYWGQGTQVTVSS	low polyreactivity
QVQLVEAGGGLVQAGGSLRLSCAASGNIFLYYAMGWYRQAPGKEREFVADIDSSGASTYYADSVKGRFTISRDNAKNTVYLQMNSLKPEDTAVYYCAAEFHWWYAGYDYGYWGQGTQVTVSS	low polyreactivity
QVQLVESGGGLVQAGGSLRLSCAASGSIFSYYAMGWYRQAPGKERELVASITSGGSTNYADSVKGRFTISRDNAKNTVYLQMNSLKPEDTAVYYCNKDGKYHRVLYDYWGQGTQVTVSS	low polyreactivity
QVQLVESGGGLVQAGGSLRLSCAASGRTFLVNAMGWYRQAPGKERELVAVMTRGGSTNYADSVKGRFTISRDNAKNTVYLQMNSLKPEDTAVYYCAKQFSPYRSYGPVVRYDYWGQGTQVTVSS	low polyreactivity
QVQRVESGGGLVQAGGSLRLSCAASGSIFLSYDMGWYRQAPGKERELVAAITQSGGSTYYADSVKGRFTISRDNAKNTVYLQMNSLKPQDTAVYSCAVRVSGPRGYDYEYWGQGTQVTVSS	low polyreactivity
QDQLVESGGGLVQAGGSLRLSCAASGFTFGDYAMGWYRQEPGKERELVAAISWSGSNTYYADSVKGRFTISRDNAKNTVYLQMNSLKPEDTAVYYCNADYDPEDMDYWGQGTQVTVSS	low polyreactivity
QVQLVESGGGLVQAGGSLRLSCAASGSIFFNNTKGWYRPAPGKERELVAAINWSGTSTYYADSVKGRFTISRDNAMNTVYLQMNSLKPEDTEVYYCAADVVRSNFDGTFLYDYDYWGLGTQVTVSS	low polyreactivity
QVQLVESGGGLVQARGSLRLTWAASGRTFGINAMGWYRQAPGKERELVAVISGSGGNTYYADSVKGRFTISRDNAKNTVYLQMNSLKPEDTAVYYFATSYEKFRYDHGYWGQGTQVTVSS	low polyreactivity
QVQLVESGGGLVQAGGSLRLRCAASGFIYIRNAMGWYRQAPGKERELVAAITRSGGRTYYADSVKGRFTISRDNAKNTVYLQMNSLIPEDTAVYYCASDAEAAWGQGTQVTVSS	high polyreactivity
